Values joined by “and” are separate entries in the source; they are usually repeats but may differ in a detail not shown here. Equal entries are not always repeated.
T1: Msn5 (S. cerevisiae exportin), wild type (S. cerevisiae, UniProt P52918 1-1224)
T1 sequence: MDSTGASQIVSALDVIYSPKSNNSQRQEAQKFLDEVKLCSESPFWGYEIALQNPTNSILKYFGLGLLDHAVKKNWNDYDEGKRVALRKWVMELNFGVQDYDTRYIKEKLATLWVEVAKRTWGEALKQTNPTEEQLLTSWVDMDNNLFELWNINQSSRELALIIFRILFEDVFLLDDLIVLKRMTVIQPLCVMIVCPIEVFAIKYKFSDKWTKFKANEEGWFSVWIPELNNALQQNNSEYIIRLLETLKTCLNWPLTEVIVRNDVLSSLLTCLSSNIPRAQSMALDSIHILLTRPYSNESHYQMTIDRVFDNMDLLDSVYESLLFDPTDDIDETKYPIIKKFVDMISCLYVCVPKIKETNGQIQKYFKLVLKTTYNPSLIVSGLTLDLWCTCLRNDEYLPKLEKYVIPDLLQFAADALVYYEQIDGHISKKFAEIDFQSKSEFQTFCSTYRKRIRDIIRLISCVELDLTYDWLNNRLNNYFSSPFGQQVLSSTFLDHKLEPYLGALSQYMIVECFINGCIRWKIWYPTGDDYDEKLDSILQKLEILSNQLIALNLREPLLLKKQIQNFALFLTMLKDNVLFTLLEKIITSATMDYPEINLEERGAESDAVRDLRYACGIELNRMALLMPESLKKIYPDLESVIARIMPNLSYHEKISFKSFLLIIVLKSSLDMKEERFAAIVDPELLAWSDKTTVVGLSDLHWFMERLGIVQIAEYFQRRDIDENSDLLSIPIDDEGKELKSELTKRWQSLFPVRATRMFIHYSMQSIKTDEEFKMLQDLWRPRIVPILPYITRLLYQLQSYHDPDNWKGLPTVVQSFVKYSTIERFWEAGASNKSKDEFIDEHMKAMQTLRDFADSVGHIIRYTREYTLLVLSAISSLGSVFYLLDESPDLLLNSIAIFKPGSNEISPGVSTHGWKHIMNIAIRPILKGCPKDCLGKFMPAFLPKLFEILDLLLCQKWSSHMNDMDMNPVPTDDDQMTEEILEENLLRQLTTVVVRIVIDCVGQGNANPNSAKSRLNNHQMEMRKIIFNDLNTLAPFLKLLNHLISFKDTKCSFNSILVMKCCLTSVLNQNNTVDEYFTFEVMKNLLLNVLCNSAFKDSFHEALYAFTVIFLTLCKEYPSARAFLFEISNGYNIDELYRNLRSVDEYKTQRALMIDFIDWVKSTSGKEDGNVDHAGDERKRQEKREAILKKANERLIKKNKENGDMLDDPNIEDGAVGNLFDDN

T2: Msn5 RRAA (R393A, R458A) (S. cerevisiae, UniProt P52918 1-1224, RRAA (R393) | RRAA (R458))
T2 sequence: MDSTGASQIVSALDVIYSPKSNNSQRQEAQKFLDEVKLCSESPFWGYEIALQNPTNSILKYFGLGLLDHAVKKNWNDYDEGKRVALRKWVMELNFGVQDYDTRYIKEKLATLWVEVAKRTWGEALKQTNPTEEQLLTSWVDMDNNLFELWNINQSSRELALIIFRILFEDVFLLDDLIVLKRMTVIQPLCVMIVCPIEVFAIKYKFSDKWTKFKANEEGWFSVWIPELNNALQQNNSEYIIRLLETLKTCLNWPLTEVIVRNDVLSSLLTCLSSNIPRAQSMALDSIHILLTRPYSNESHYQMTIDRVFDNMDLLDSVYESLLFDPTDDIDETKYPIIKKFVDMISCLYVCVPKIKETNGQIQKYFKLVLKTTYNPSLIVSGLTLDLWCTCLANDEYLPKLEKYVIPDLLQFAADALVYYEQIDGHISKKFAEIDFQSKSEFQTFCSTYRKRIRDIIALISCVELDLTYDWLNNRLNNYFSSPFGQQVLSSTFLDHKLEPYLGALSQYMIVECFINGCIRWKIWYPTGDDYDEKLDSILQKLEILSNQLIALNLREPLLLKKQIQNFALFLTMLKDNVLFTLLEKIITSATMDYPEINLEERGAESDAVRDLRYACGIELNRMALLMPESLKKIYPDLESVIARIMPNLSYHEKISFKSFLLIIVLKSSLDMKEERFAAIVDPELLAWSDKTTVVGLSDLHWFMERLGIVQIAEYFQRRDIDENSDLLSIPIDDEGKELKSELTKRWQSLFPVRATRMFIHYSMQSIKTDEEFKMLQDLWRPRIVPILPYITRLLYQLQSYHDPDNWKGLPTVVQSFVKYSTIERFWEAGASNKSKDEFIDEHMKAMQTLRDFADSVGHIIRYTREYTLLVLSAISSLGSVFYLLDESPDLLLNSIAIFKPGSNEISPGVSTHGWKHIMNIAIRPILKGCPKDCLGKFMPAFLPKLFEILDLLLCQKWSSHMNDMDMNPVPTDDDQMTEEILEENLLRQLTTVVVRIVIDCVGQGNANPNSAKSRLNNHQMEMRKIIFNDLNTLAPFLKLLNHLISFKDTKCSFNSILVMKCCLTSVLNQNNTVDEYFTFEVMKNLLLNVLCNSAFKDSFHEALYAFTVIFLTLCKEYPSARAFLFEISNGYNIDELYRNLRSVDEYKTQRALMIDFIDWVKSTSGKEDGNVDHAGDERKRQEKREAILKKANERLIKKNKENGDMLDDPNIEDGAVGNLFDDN


What was measured:
[1] = molecular target: T1, Msn5 (S. cerevisiae exportin), wild type; assay: fluorescence polarisation
[2] = molecular target: T2, Msn5 RRAA (R393A, R458A); assay: fluorescence polarisation
[3] = molecular target: T1, Msn5 (S. cerevisiae exportin), wild type; assay: cryo-EM structure

Binder	Kd [1]	Kd [2] [nM]	binding result [3]
mNeonGreen-pPho4_(3-200), wild type, phosphorylated (domain or fragment, phosphorylated in vitro by Pho80-Pho85: pS100, pS114, pS128, pS152) RTTSEGIHGFVDDLEPKSSILDKVGDFITVNTKRHDGREDFNEQNDELNSQENHNSSENGNENENEQDSLALDDLDRAFELVEGMDMDWMMPSHAHHSPATTATIKPRLLYSPLIHTQSAVPVTISPNLVATATSTTSANKVTKNKSNSSPYLNKRRGKPGPDSATSLFELPDSVIPTPKPKPKPKQYPKVILPSNST	20 nM and 44 nM and 25 nM	2200	
pPho4_(1-200), phosphorylated, GST removed (domain or fragment, phosphorylated in vitro by Pho80-Pho85: pS100, pS114, pS128, pS152 (pS114 and pS128 seen in the structure)) MGRTTSEGIHGFVDDLEPKSSILDKVGDFITVNTKRHDGREDFNEQNDELNSQENHNSSENGNENENEQDSLALDDLDRAFELVEGMDMDWMMPSHAHHSPATTATIKPRLLYSPLIHTQSAVPVTISPNLVATATSTTSANKVTKNKSNSSPYLNKRRGKPGPDSATSLFELPDSVIPTPKPKPKPKQYPKVILPSNST			binds

Source: publication PMC11910620 (Nature Communications, 2025)
